According to PMC9482650, “Quantitative fragmentomics allow affinity mapping of interactomes” (Nature Communications, 2022):

Experiments:
Assay in all cases: holdup assay
Design in all cases: key: below the threshold = too weak to quantify, mostly under pKd 3.1 to 4
Conditions in all cases: plain residues with an end cap or a label only (N-terminal biotin on a linker: ttds)
Q12923 = target: Q12923
O00233 = target: O00233
Q9NR12 = target: Q9NR12
Q8TB45 = target: Q8TB45
Q9Y3R0 = target: Q9Y3R0
Q92614 = target: Q92614
Q9H190 = target: Q9H190
Q6ZWJ1 = target: Q6ZWJ1
Q13009 = target: Q13009
Q8IUC4 = target: Q8IUC4
O75970 = target: O75970
Q5TCQ9 = target: Q5TCQ9
Q9UDY2 = target: Q9UDY2
Q96FS4 = target: Q96FS4
Q9ULJ8 = target: Q9ULJ8
O15021 = target: O15021
Q96SB3 = target: Q96SB3
Q96HC4 = target: Q96HC4
Q9C0E4 = target: Q9C0E4
Q9P227 = target: Q9P227
Q8TDM6 = target: Q8TDM6
O43166 = target: O43166
Q70Z35 = target: Q70Z35
Q8TEW0 = target: Q8TEW0
O00560 = target: O00560
Q96JB8 = target: Q96JB8
O60759 = target: O60759

Measured: pKd

B1: ATP2B4, P23634 (peptide)
chain: SSLQSLETSV
below the threshold: Q12923 | O00233 | Q9NR12 | Q8TB45 | Q9Y3R0 | Q92614 | Q9H190 | Q6ZWJ1 | Q13009 | Q8IUC4 | O75970 | Q5TCQ9 | Q9UDY2 | Q96FS4 | Q9ULJ8 | O15021 | Q96SB3 | Q96HC4 | Q9C0E4 | Q9P227 | Q8TDM6 | O43166 | Q70Z35 | Q8TEW0 | O00560 | Q96JB8 | O60759
